# Test results from publication PMC7242444, “Characterization of the zinc finger proteins ZMYM2 and ZMYM4 as novel B-MYB binding proteins” (Scientific Reports, 2020).
# T1: GFP-B-MYB (human, UniProt P10244 1-700)
# T1 construct: B-MYB, human, full length, fused to eGFP; The truncated derivatives were cloned in peGFP-C1, 2 or 3, which would put GFP at the N-terminus; also called GFP/B-MYB fusion protein; peGFP-B-MYB; source: HEK293T, stably expressing (lentiviral) or transfected, in lysate
# T1 sequence (looked up): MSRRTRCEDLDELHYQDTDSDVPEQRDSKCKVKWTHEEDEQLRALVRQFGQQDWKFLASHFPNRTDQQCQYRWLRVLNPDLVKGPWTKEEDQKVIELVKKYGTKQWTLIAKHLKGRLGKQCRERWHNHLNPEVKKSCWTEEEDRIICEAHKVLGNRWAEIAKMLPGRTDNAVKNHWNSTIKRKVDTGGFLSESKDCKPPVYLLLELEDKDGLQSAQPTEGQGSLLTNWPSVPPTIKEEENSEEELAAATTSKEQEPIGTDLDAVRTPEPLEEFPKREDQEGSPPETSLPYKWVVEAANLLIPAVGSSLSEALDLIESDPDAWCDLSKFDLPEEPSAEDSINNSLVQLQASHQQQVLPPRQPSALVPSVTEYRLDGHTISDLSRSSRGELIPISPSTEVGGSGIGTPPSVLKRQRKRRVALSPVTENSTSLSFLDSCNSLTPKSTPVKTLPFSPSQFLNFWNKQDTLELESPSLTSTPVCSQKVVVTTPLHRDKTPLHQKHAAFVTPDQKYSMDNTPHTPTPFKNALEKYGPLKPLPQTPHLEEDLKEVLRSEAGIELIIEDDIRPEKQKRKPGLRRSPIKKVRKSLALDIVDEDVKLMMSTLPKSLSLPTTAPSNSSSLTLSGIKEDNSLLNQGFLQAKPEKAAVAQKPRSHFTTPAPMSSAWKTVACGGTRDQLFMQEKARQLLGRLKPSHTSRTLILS
# B1: zinc finger MYM-type protein 4 (ZMYM4), endogenous (natural protein, human (endogenous in HEK293T), UniProt Q5VZL5 1-1548, looked up)
# chain: MAEREVESGPRKRFEQKSGAVFDEIVENCGGIMDTEMSEDIDHNLTPTLDSMSYGMPNQTGSENSLLDEDDYFLNSGDLAGIPVVGSDNEDEQDFSSKDNLVSSIHTDDSLEVERRVTQHESDNENEIQIQNKLKKDFPKQFDQVSVFKSIRKDFSLVRENSKETFSGKEKNRDLTYEREKRLDKPHKDLDSRLKSSFFDKAANQVEETLHTHLPQTPETNFRDSSYPFANKESIGSELGNSFASNIRIKEEPLDDEYDKAMAPQQGLLDKIKDEPDNAQEYSHGQQQKTQEGELKISAVFSVSGSPLAPQLTTGFQPSLASSGMNKMLPSVPATAVRVSCSGCKKILQKGQTAYQRKGSTQLFCSTLCLTGYTVPPARPPPPLTKKTCSSCSKDILNPKDVISAQFENTTTSKDFCSQSCLSTYELKKKPIVTINTNSISTKCSMCQKNAVIRHEVNYQNVVHKLCSDACFSKFRSANNLTMNCCENCGGYCYSGSGQCHMLQIEGQSKKFCSSSCITAYKQKSAKITPCALCKSLRSSAEMIENTNSLGKTELFCSVNCLSAYRVKMVTSAGVQVQCNSCKTSAIPQYHLAMSDGSIRNFCSYSCVVAFQNLFNKPTGMNSSVVPLSQGQVIVSIPTGSTVSAGGGSTSAVSPTSISSSAAAGLQRLAAQSQHVGFARSVVKLKCQHCNRLFATKPELLDYKGKMFQFCGKNCSDEYKKINNVMAMCEYCKIEKIVKETVRFSGADKSFCSEGCKLLYKHDLAKRWGNHCKMCSYCLQTSPKLVQNNLGGKVEEFCCEECMSKYTVLFYQMAKCDACKRQGKLSESLKWRGEMKHFCNLLCILMFCNQQSVCDPPSQNNAANISMVQAASAGPPSLRKDSTPVIANVVSLASAPAAQPTVNSNSVLQGAVPTVTAKIIGDASTQTDALKLPPSQPPRLLKNKALLCKPITQTKATSCKPHTQNKECQTEDTPSQPQIIVVPVPVPVFVPIPLHLYTQYAPVPFGIPVPMPVPMLIPSSMDSEDKVTESIEDIKEKLPTHPFEADLLEMAEMIAEDEEKKTLSQGESQTSEHELFLDTKIFEKDQGSTYSGDLESEAVSTPHSWEEELNHYALKSNAVQEADSELKQFSKGETEQDLEADFPSDSFDPLNKGQGIQARSRTRRRHRDGFPQPRRRGRKKSIVAVEPRSLIQGAFQGCSVSGMTLKYMYGVNAWKNWVQWKNAKEEQGDLKCGGVEQASSSPRSDPLGSTQDHALSQESSEPGCRVRSIKLKEDILSCTFAELSLGLCQFIQEVRRPNGEKYDPDSILYLCLGIQQYLFENGRIDNIFTEPYSRFMIELTKLLKIWEPTILPNGYMFSRIEEEHLWECKQLGAYSPIVLLNTLLFFNTKYFQLKNVTEHLKLSFAHVMRRTRTLKYSTKMTYLRFFPPLQKQESEPDKLTVGKRKRNEDDEVPVGVEMAENTDNPLRCPVRLYEFYLSKCSESVKQRNDVFYLQPERSCVPNSPMWYSTFPIDPGTLDTMLTRILMVREVHEELAKAKSEDSDVELSD
# notes: ZMYM4 (zinc finger MYM-type protein 4), endogenous in HEK293T cells; In extracts made without NEM the protein is de-SUMOylated; also called endogenous ZMYM4; source: endogenous, HEK293T lysate
# Biological target: T1, GFP-B-MYB
# Test: co-IP; GFP-trap beads, 3 h at 4 °C, extracts of HEK293T cells in ELB buffer (50 mM Tris/HCl pH 7.5, 120 mM NaCl, 0.2% NP-40) expressing the GFP fusion bait; Western blot of bound proteins; in Fig. 3 cells pre-incubated with 10 μM BrdU and irradiated or not with UV-C
# Conditions: partners not purified
binder,measurement,value
B1,"fold increase of binding after UV irradiation (against non-irradiated cells, densitometry)",4.1 fold
